Experiment in all cases: flow cytometry, alanine-scan library in HEK-293T, with cytochalasin B
One experiment concerns the target T1, hsGLUT4 S310A (human, UniProt P14672 1-509).
T1 sequence: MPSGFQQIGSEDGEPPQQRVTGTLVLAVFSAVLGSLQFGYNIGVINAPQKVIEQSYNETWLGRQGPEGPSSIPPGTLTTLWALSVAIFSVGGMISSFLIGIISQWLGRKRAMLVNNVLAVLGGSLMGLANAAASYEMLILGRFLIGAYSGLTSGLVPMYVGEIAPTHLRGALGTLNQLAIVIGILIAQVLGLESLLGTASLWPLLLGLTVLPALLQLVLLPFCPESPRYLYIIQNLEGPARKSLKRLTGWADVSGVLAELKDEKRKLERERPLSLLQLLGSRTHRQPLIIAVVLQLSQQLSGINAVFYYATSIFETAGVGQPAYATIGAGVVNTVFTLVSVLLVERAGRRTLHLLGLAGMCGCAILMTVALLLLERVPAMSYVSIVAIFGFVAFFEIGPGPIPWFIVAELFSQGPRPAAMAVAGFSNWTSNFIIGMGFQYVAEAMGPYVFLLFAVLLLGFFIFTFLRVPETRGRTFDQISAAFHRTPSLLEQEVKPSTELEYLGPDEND
Summed up: (§1)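 HEK-293T cells expressing individual GLUT4 alanine mutants were stained 48 h post-transfection with anti-GLUT4 scFv MAbs (2 μg/ml), then biotinylated secondary and streptavidin-PerCP, and read by high-throughput flow cytometry. Where used, cytochalasin B (10 uM final) was given for 30 min before and during primary antibody staining.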

The next experiment addresses T2, hsGLUT4 F307A (human, UniProt P14672 1-509).
T2 sequence: T1 sequence with F307A, A310S
In short, it runs like this: as §1

The next experiment has as its target T3, hsGLUT4 L247A (human, UniProt P14672 1-509).
T3 sequence: T1 sequence with L247A, A310S
Summed up: as §1

For another experiment, the target named is T4, hsGLUT4 M112A (human, UniProt P14672 1-509).
T4 sequence: T1 sequence with M112A, A310S
Summed up:
as §1

Where a chain is given by its changes, count along the chain named.

B1: AB102 (Fc fusion)
scFv: ALTQPSSVSANLGGTVKITCSGGGSYGYGWYQQKSPGSAPVTVIYSNDQRPSDIPSRFSGSKSGSTATLTITGVRAEDEAIYYCGSTDSDYVGIFGAGTTLTVLGQSSRSSGGGGSSGGGGSAVTLDESGGGLQTPGGTLSLVCKASGFDFSSYATIWVRQAPGKGLEWVAGISGTGTGSSTGYAPAVKGRATISRDNGQSTVRLQLNNLRAEDTGSYFCAKSTGYGDSWIYPDSIDAWGHGTEVIVSS
notes: also called MAb AB102; not shown: Fc fragment of human IgG1, cloned in frame with the scFv
Take B1: the “% of binding to wild type GLUT4” value in the experiment with hsGLUT4 S310A stood at 20%; with hsGLUT4 F307A, 22%; in the experiment with hsGLUT4 L247A, 15%; with hsGLUT4 M112A, 23%.

The values are drawn from patent US20210238276A1 (INTEGRAL MOLECULAR, published 2021).
